Patent US12338483

Target: T1, GzmB/MMP AND-gate protease activity sensor
T1 chain: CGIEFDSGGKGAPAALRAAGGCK

B1: West Nile Virus NS3 protease (protein)
chain: GGVLWDTPSPKEYKKGDTTTGVYRIMTRGLLGSYQAGAGVMVEGVFHTLWHTTKGAALMSGEGRLDPYWGSVKEDRLCYGGPWKLQHKWNGHDEVQMIVVEPGKNVKNVQTKPGVFKTPEGEIGAVTLDYPTGTSGSPIVDKNGDVIGLYGNGVIMPNGSYISAIVQGERMEEPAPAGFEPEML
- fluorescent signal in a cleavage assay (AND-gate sensor with GzmB and a second protease): The sensor produced low signals with the viral proteases compared to MMP8

B2: Tobacco Etch Virus protease (protein)
chain: GESLFKGPRDYNPISSTICHLTNESDGHTTSLYGIGFGPFIITNKHLFRRNNGTLLVQSLHGVFKVKNTTTLQQHLIDGRDMIIIRMPKDFPPFPQKLKFREPQREERICLVTTNFQTKSMSSMVSDTSCTFPSSDGIFWKHWIQTKDGQCGSPLVSTRDGFIVGIHSASNFTNTNNYFTSVPKNFMELLTNQEAQQWVSGWRLNADSVLWGGHKVFMSKPEEPFQPVKEATQLMNELVYSQ
- fluorescent signal in a cleavage assay (AND-gate sensor with GzmB and a second protease): The sensor produced low signals with the viral proteases compared to MMP8
